Data set [1] has as its target N2β1α1C1, recombinant purified (the MxDnaK1 chimera with the MxDnaK2 NBD) (Myxococcus xanthus DK1622). Nature of the data set: SDS-PAGE of the purified protein (monomer and dimer bands); purified MxDnaKs and chimeras on SDS-PAGE, without DTT treatment; monomer (1×) and dimer (2×) bands.
Data set [2] deals with the molecule itself. The description is as above.

Consider 2 molecules from PMC11019930, “DnaK duplication and specialization in bacteria correlates with increased proteome complexity” (mSystems, 2024).

In general, stoichiometry N refers to the number of molecules, sites or subunits per partner or assembly.

In the case of “N2β1α1C1, recombinant purified (the MxDnaK1 chimera with the MxDnaK2 NBD)”, the oligomer state on SDS-PAGE (subunits per band) in data set [1] worked out at 2.

B1: His6-MxDnaK2 (natural protein, Myxococcus xanthus DK1622, UniProt P95334 1-607, looked up)
chain: MGKVIGIDLGTTNSCVAVMEGGEPVVIPNSEGSRTTPSMVGFTDSGERLVGQIAKRQAITNPENTVFAAKRLIGRKFDSPEGKKAIGVSPFKVASSPNGDAWVEIRGKGYSPPEVSAIVLMKMKQTAEDYLGEQVSEAVITVPAYFNDSQRQATKDAGRIAGLSVLRIINEPTAAALAYGLDKVQDGGTERIAVYDLGGGTFDISILELNAGVFEVKSTNGDTFLGGEDFDQRLIDYLAKRFAESNNGLDLRKDRMALQRLKEAAERAKHELSSAPETEVNLPFITADASGPKHLTETVDRATFEALVTDLIDRTIEPCRIALKDAGIPAQQINQVLLVGGMTRMPRVQQKVKEFFGREPHKGINPDEVVAVGAAIQGGVLKGEVKDVLLLDVTPLSLGVETAGGVFTKIIDKNTTIPCKKSQVFSTAVDNQPLVSVHVLQGEREMAADNKTLARFELVGIPPAPRGVPQIEVSFDIDANGIVHVSAKDLGTGKVQQVRVVSNSGLSEAEIQAMISDAQSHASDDKKKKELAELRNNADGLIYTTEKSLEEYASLLSEKDREEIKADLERLKEVLNTSDAAVLKESFQRLEGSAYRIADAIYTGQAS
notes: MxDnaK2 (MXAN_6671) of Myxococcus xanthus DK1622; the gene was amplified from genomic DNA and cloned into pET28a; His6-MxDnaK2 printed as 65.3 kDa; also called MxDnaK2, recombinant purified; source: E. coli BL21 (DE3), purified (Ni-NTA); not shown: His6, N-terminal, kept
Consider B1, for which the “stoichiometry N” value in data set [2] was found to be 2.
